Measurements published in patent US20260028402A1 (SANYOU BIOPHARMACEUTICALS, published 2026).

B1: MusCD100-Fc (Fc fusion, mouse, UniProt O09126 24-733, looked up)
chain: FAPVPRLTWEHGEVGLVQFHKPGIFNYSALLMSEDKDTLYVGAREAVFAVNALNISEKQHEVYWKVSEDKKSKCAEKGKSKQTECLNYIRVLQPLSSTSLYVCGTNAFQPTCDHLNLTSFKFLGKSEDGKGRCPFDPAHSYTSVMVGGELYSGTSYNFLGSEPIISRNSSHSPLRTEYAIPWLNEPSFVFADVIQKSPDGPEGEDDKVYFFFTEVSVEYEFVFKLMIPRVARVCKGDQGGLRTLQKKWTSFLKARLICSKPDSGLVFNILQDVFVLRAPGLKEPVFYAVFTPQLNNVGLSAVCAYTLATVEAVFSRGKYMQSATVEQSHTKWVRYNGPVPTPRPGACIDSEARAANYTSSLNLPDKTLQFVKDHPLMDDSVTPIDNRPKLIKKDVNYTQIVVDRTQALDGTFYDVMFISTDRGALHKAVILTKEVHVIEETQLFRDSEPVLTLLLSSKKGRKFVYAGSNSGVVQAPLAFCEKHGSCEDCVLARDPYCAWSPAIKACVTLHQEEASSRGWIQDMSGDTSSCLDKSKESFNQHFFKHGGTAELKCFQKSNLARVVWKFQNGELKAASPKYGFVGRKHLLIFNLSDGDSGVYQCLSEERVRNKTVSQLLAKHVLEVKMVPRTPPSPTSEDAQTEGSKITSKMPVASTQGSSPPTPALWATSPRAATLPPKSSSGTSCEPKMVINTVPQLHSEKTVYLKSSDNR
modifications: biotinylated in the Plexin binding and blocking assays (sites not given)
notes: range 24-733; Expressed in HEK293 cells; also called MusCD100-Fc-Biotin; MusCD100-Fc antigen protein; not shown: human Fc tag added to the C-terminus
B2: A31 (antibody, human IgG4 S228P, V domains shown)
VH: EVQLVESGGGLVQPEGSLRLSCAASGFPLDYYAIGWFRQAPGKEREGVSCIISGGSTKYSASVKGRFTISRDSANNTVYLQMNSLKPEDTAVYFCAVSWSCDLFPRDTYGWDAWGQGTLVTVSS
notes: also called antibody A31; antibody molecule A31
B3: A31-VHH (VHH)
VHH: EVQLVESGGGLVQPEGSLRLSCAASGFPLDYYAIGWFRQAPGKEREGVSCIISGGSTKYSASVKGRFTISRDSANNTVYLQMNSLKPEDTAVYFCAVSWSCDLFPRDTYGWDAWGQGTLVTVSS
notes: Tested as phage clone / VHH lysate in the screening; also called antibody A31-VHH
B4: A31-VHH1 (antibody, human IgG4 S228P, V domains shown)
VH: EVQLVESGGGLVQPEGSLRLSCAASGFPLDYYAIGWFRQAPGKEREGVSCIISGGSTKYSASVKGRFTISRDSAKNTVYLQMNSLRAEDTAVYFCAVSWSCDLFPRDTYGWDAWGQGTLVTVSS
notes: also called humanized antibody A31-VHH1
B5: A9-VHH2 (antibody, human IgG4 S228P, V domains shown)
VH: QVQLVESGGGLVQAGGSLRLSCAASGFSLDYYAIGWFRQAPGKEREEVSCISSSGGSTDYADSVKGRFTISRAYAKVYLQMNSLRAEDTAVYYCAAGVSGSVCPPLIGAYWGQGTLVTVSS
B6: A9 (antibody, human IgG4 S228P, V domains shown)
VH: QVQLVESGGGLVQAGGSLRLSCAASGFSLDYYAIGWFRQAPGKEREEVSCISSSGGSTDYADSVKGRFTISRAYAKVYLQMNSLKPEDTAVYYCAAGVSGSVCPPLIGAYWGQGTQVTVSS
notes: also called antibody A9; antibody molecule A9
B7: A9-VHH3 (antibody, human IgG4 S228P, V domains shown)
VH: QVQLVESGGGLVQAGGSLRLSCAASGFSLDYYAIGWFRQAPGKGLEEVSCISSSGGSTDYADSVKGRFTISRAYAKVYLQMNSLRAEDTAVYYCAAGVSGSVCPPLIGAYWGQGTLVTVSS
B8: A9-VHH1 (antibody, human IgG4 S228P, V domains shown)
VH: QVQLVESGGGLVQPGGSLRLSCAASGFSLDYYAIGWFRQAPGKEREEVSCISSSGGSTDYADSVKGRFTISRAYAKVYLQMNSLKPEDTAVYYCAAGVSGSVCPPLIGAYWGQGTLVTVSS
B9: Pepinemab (antibody, V domains shown)
VH: QVQLVQSGAEVKKPGSSVKVSCKASGYSFSDYYMHWVRQAPGQGLEWMGQINPTTGGASYNQKFKGKATITVDKSTSTAYMELSSLRSEDTAVYYCARYYYGRHFDVWGQGTTVTVSS
VL: DIVMTQSPDSLAVSLGERATINCKASQSVDYDGDSYMNWYQQKPGQPPKLLIYAASNLESGVPDRFSGSGSGTDFTLTISSLQAEDVAVYYCQQSNEDPYTFGQGTKLEIK

Columns and labels:
[1] = molecular target: T1, full-length mouse Plexin-B1 protein MusPlexin-B1 on cells (mouse, UniProt Q8CJH3 20-2119); test: flow cytometry on MusPlexin-B1-HEK293 cells with biotinylated antigen protein and streptavidin PE
T1 construct: whole, on cells; Overexpressed on HEK293 cells; also called MusPlexin-B1-HEK293
Method: Flow cytometry identification of HuPlexin-B1-HEK293, MusPlexin-B1-HEK293, CynoPlexin-B1-HEK293, and HuPlexin-B2-HEK293 cells: cells of the above cell lines in the logarithmic growth phase were trypsinized and plated into 96-well plates. […] After washing, the prepared eBioscience Streptavidin PE (Invitrogen, 2265658, 1:300) was added and the plates were incubated at 4° C. for 30 min. Finally, detection was performed using a flow cytometer (Beckman, CytoFLEXAOO-1-1102).

[2] = molecular target: HuCD100-His (human, UniProt Q92854 22-734); test: cell-based or functional assay
[3] = molecular target: T2, full-length human CD100 protein HuCD100 on cells (human, UniProt Q92854 22-862); test: flow cytometry on HuPBMCs naturally expressing human CD100
T2 construct: whole, on cells; the cell is named under assay; also called HuCD100-HEK293; human CD100 on HuPBMC
Method: (§1) The specific procedures were as follows: HuPBMCs (AllCells, PB004F-C (Y1246)) and Jurkat cells (ATCC, TIB-152) in logarithmic growth phase were prepared as single-cell suspensions. The density was adjusted to 1×10⁶ cells/mL, and 100 μL of each suspension was added per well to 96-well plates. The plates were centrifuged at 4° C., 300 g and the supernatants were removed. […] After incubation, the cell mixture was washed three times, and then 100 μL of 1:300 diluted secondary antibody Goat F(ab′)₂ Anti-Human IgG-Fc (PE) (abcam, ab98596) was added, and the plates were incubated in the dark at 4° C. for 30 min. Following 3 additional washes, detection was performed using a flow cytometer (Beckman, CytoFLEX AOO-1-1102).

[4] = molecular target: T3, full-length mouse CD100 protein MusCD100 on cells (mouse, UniProt O09126 24-861); test: flow cytometry on MusCD100-HEK293 cells
T3 construct: whole, on cells; Overexpressed on HEK293 cells; also called MusCD100-HEK293

[5] = molecular target: T2, full-length human CD100 protein HuCD100 …; test: flow cytometry on Jurkat cells naturally expressing human CD100
Method: as §1

[6] = molecular target: T4, MusCD100-His (mouse, UniProt O09126 24-733); test: primary ELISA screening of monoclonal clones
T4 construct: range 24-733; Expressed in HEK293 cells; also called MusCD100-His antigen protein; not shown: His tag added to the C-terminus

[7] = molecular target: T4, MusCD100-His; test: ELISA, antigen coated on plate

T1 sequence (Q8CJH3 20-2119): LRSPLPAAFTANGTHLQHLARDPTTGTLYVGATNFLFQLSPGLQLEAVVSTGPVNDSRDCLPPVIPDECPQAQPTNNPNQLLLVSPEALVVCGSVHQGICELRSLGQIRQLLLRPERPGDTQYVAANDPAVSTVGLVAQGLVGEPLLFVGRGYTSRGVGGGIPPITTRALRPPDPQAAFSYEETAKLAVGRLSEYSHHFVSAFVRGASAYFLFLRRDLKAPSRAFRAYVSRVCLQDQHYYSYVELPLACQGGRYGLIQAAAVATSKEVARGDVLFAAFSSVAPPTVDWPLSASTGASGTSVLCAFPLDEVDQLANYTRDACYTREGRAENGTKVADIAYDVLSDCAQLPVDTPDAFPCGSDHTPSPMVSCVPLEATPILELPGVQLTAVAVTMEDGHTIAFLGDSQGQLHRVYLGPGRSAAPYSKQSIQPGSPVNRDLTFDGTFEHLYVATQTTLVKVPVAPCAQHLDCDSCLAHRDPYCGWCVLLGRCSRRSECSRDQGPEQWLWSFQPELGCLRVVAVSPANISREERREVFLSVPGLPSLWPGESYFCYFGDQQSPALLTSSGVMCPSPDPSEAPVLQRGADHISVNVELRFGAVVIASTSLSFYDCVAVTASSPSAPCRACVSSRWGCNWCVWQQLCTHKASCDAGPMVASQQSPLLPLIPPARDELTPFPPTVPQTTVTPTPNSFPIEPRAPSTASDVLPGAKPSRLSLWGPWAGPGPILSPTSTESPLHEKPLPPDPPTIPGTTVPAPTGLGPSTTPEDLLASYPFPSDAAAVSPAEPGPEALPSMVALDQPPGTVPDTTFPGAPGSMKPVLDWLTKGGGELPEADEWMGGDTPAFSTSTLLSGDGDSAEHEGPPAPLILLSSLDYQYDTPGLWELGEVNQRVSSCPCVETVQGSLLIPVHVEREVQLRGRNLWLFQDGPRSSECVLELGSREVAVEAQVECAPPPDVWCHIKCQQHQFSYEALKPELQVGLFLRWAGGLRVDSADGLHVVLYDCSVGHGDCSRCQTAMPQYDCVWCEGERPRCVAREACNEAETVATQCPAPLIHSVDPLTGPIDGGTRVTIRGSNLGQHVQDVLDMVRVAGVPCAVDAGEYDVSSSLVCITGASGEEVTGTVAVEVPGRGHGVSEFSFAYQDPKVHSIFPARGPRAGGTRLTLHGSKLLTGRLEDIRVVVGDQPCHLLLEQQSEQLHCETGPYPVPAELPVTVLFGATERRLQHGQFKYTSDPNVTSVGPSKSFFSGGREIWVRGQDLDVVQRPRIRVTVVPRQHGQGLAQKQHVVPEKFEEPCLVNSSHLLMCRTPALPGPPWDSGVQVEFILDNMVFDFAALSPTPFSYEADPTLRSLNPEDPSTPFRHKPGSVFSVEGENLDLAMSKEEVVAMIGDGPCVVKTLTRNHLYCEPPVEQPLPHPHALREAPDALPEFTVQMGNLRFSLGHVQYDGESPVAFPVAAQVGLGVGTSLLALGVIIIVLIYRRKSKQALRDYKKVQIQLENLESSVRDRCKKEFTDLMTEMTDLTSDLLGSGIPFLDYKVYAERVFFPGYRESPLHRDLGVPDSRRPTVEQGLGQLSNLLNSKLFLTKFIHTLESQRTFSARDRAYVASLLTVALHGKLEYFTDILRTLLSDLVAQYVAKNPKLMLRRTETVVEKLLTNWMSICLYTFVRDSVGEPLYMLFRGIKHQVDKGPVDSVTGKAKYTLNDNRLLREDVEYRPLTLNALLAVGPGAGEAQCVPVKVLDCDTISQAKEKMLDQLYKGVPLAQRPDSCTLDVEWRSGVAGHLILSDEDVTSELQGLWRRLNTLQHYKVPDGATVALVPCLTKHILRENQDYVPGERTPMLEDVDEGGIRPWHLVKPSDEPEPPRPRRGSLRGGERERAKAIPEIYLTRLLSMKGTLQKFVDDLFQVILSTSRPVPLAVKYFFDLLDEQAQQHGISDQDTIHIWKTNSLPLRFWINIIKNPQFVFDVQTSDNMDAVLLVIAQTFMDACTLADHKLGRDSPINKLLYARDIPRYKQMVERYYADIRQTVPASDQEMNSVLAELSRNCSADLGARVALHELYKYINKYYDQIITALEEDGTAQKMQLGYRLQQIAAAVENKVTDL

Binder | binding result [1] | MDSC proportion (%) at 2.821 nM antibody [2] [%] | MDSC proportion (%) at 8.463 nM antibody [2] [%] | MDSC proportion (%) at 25.389 nM antibody [2] [%] | MDSC proportion (%) at 76.166 nM antibody [2] [%] | MDSC proportion (%) at 228.498 nM antibody [2] [%] | MDSC proportion (%) at 685.495 nM antibody [2] [%] | EC50 [3] [nM] | binding result [4] | EC50 [5] [nM] | binding result [6] | binding result [7]
B1 | binds |  |  |  |  |  |  |  |  |  |  | 
B2 |  | 16.8 | 8.97 | 9.56 | 10.4 | 10.7 | 14.7 | 0.162 | binds | 0.302 |  | 
B3 |  |  |  |  |  |  |  |  |  |  | binds | 
B4 |  | 16.4 | 9.21 | 7.71 | 7.84 | 13.7 | 10 |  | binds |  |  | binds
B5 |  | 31.2 | 17.8 | 13.1 | 10.5 | 9.09 | 10.9 |  |  |  |  | 
B6 |  | 34.2 | 23.2 | 10.2 | 5.12 | 7.08 | 11.1 | 0.191 |  | 0.346 |  | 
B7 |  | 30.9 | 21.3 | 11.8 | 7.66 | 8.85 | 15 |  |  |  |  | 
B8 |  | 32.6 | 21.1 | 11 | 6.56 | 9.06 | 15.6 |  |  |  |  | 
B9 |  |  |  |  |  |  |  | 0.223 |  | 0.559 |  | 
